Results published in patent EP2450379B1 (Crucell Holland B.V., dated 2015).

B1: CR6296 (antibody, V domains shown)
VH: EVQLVETGAEVKKPGASVKVSCKASGYTFTSYYMHWVRQAPGQGLEWMGWINPNSGGTNYAQKFQGRVTMTRDTSISTAYMELSRLRSDDTAVYYCAREGKWGPQAAFDIWGQGTMVTVSS
VL: EIVMTQSPGTLSLSPGERATLSCRASQSVSSSYLAWYQQKPGQAPRLLIYDASSRATDIPDRFSGSGSGTDFTLTISRLEPEDFAVYYCQQYGSSLWTFGQGTKVEIKR
notes: human IgG1
B2: CR6323 (antibody, V domains shown)
VH: EVQLVESGAEVKKPGSSVKVSCKASGGTFSSYGISWVRQAPGQGLEWMGDIIGMFGSTNYAQNFQGRLTITADESTSTAYMELSSLRSEDTAVYYCARSSGYYPAYLPHWGQGTLVTVSS
VL: not shown
notes: human IgG1
B3: CR6141 (antibody, V domains shown)
VH: EVQLVQSGAEVKKPGASVKVSCKASGYTFTGYYVYWVRQAPGQGLEWMGWISAYNGNTNYAQKFQGRVTITADKSTSTAYMELSSLRSEDTAVYYCARSRSLDVWGQGTTVTVSS
VL: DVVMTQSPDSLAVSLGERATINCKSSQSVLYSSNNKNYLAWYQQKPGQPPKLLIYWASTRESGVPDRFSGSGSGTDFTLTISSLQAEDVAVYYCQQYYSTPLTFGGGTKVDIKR
notes: human IgG1
B4: CR6307 (antibody, V domains shown)
VH: QVQLVQSGGGLVKPGGSLRLSCAASGFTFSSYSMNWVRQAPGKGLEWVSSISSSSSYIYYVDSVKGRFTISRDNAKNSLYLQMNSLRAEDTAVYYCARGGGSYGAYEGFDYWGQGTLVTVSS
VL: EIVLTQSPGTLSLSPGERATLSCRASQRVSSYLAWYQQKPGQAPRLLIYGASTRAAGIPDRFSGSGSGTDFTLTISRLEPEDSAVYYCQQYGRTPLTFGGGTKVEIKR
notes: human IgG1
B5: CR6301 (antibody, V domains shown)
VH: EVQLVESGGGLVQPGGSLRLSCAASGFTFSIYAMSWVRQAPGKGLEWVSAISSSGDSTYYADSVKGRFTISRDNARNTLYLQMNSLRAEDTAVYYCARAYGYTFDPWGQGTLVTVSS
VL: not shown
notes: human IgG1

What was measured:
[1] = target: T1, soluble recombinant HA (sHA) of H5N1TV (influenza A virus A/Vietnam/1194/2004 …, UniProt Q6J8F6 17-528); experiment: immunoblot (data not shown)
[2] = target: T1, soluble recombinant HA (sHA) of H5N1TV; experiment: immunoblot, reducing SDS-PAGE

Row | Binder | binding result [1] | binding result [2]
1 | B1 | binds | 
2 | B2 |  | binds
3 | B3 | binds | 
4 | B4 |  | binds
5 | B5 | binds | 
